From the domain aggregation screens of Martell et al. (2025)

experiment: soluble fraction after stress (log2 fold change); higher = more stays soluble; pooled small domains, quantitative proteomics; conditions: stress: pH 4
In short: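 Aggregation propensity is read out as the fold change in how much of each domain remains soluble after acid stress. The custom small-domain libraries were pooled, held at pH 4 and analysed with high-throughput quantitative proteomics. On the log2 scale used, higher values mean more of the domain stayed soluble.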

| Sequence | soluble fraction (log2) |
| --- | --- |
| HMEIETPEIRAIHDLLELLANKAKKPEQEQFVQAHPEVQWAKVEANKNGTFAVGKVKAYLKTLQA | -0.568 |
| HMEIGNVIAKLRVSNGLNQREFAKKLEVSNGAVAMWETNKRQPDLEMIKKISNLFDVPTDYILGAGTFQ | 0.152 |
| HMEIIFVEHKVRPGESVWLIARKYKVKKNHILAVNNLSEKSIIRPKQILKIPTSGYDQYKKSVE | -0.495 |
| HMEIIMIVITKPSITDERIAEIVAVIERNGGVQAHVSKGTDRTVIGIIGKAEPTLAEHLRQMKGVENVIKI | -0.327 |
| HMEIPMRDKLKTYIDYLFAGAPQTAATAETKAEILQNTLDKYDDLIAEGKTPEAAYSLAVSGIGDLGDF | -0.339 |
| HMEIPTEEILKQKLYYSISEVASWFKVNTSLLRYWENEFDILQPRKTRKGDRLFRVEDIKNLQLIYLL | -0.122 |
| HMEITGKYKAKEDIKLKVIPLISSLDLQDIKQNTELEVKDTMNNWAYVTVQEKQGWVVLEKIEKVE | -1.07 |
| HMEITTLTGVLGAGRLDSALAAALPQYSRARIQALISDAALRINGQVVADAGSKKMSGQTFELNIPAPVP | 0.0449 |
| HMEKDEYIFVDIDGAVFNPGVYKLIAGSRVIDAINLAGGLKEKAFTQNLNKARKLVDGEKIYIYLEGDEE | -1.23 |
| HMEKDRDKRIRKRVLTALKRNDKKMTDKAFALLTSRIRDESILDQEVLKLIGYVGDRTTIDSKDINIVVAE | 0.0457 |
| HMEKEEELNSIRPDLDGNDIMEILGVPAGPKVGKAYNYLLNVRLDEGPLSRAEAISRLEAWWENQ | -1.22 |
| HMEKELVSDFASRISTARSSKGWNHAELGKRMAETVNVIKSAESGKPPTDSVVKKLERVLGITLMEV | -0.218 |
| HMEKEYMKNVVGMEYRQARVLLGDMGLELAFQPVYETSDKYPTDVVVSTEPAADQPLTKGQTVILHIST | 0.299 |
| HMEKGNEEALEQAREAILAVQSGEKYVDLDPANAAIRRKQHALAQASDLVSQSYGKDPNRYVRIFR | 0.367 |
| HMEKINLLVENNDNYRLDKIIALNMEELSRTQIQEMIGQGLVLVNGKVEKASYKTKLNDQIEITIED | -0.409 |
| HMEKKKVPEVAGQDEAAARNVMTNSGFVVDVEQKEDDNVPAGKVITTAPAGGVEVVEGTKIILYVSKGSN | 0.0237 |
| HMEKKPYGEMHNVMLTDEELEKLRHDYPAHFAEYIQRLSLHIDAKGARYKSHYAVIRKWLIADGVKA | 0.0221 |
| HMEKLIRIKRLIKQLNEYRDSYYNEARPVVSDAAYDKLFDELSELEKETGVVYANSPTQTVG | -0.457 |
| HMEKPTEITLSNRVSVQELAEKMYVSETDIIRTLFLDGRIININQVLDIDTAIRVGEQLGIKIKII | -1.49 |

| Sequence | soluble fraction (log2) |
| --- | --- |
| HMEKPTRNKLVEIIIQNKNVTTEQMANLLNISRRAVAKHIKKLQEEGIIRRIGPDFGGHWEIVK | 0.225 |
| HMEKPYTPPANLNEIQSYEELSKAVQYYNKVKDAATTDADRLKAQQSIDTLEDMRKAWDAASST | -0.312 |
| HMEKSLSAQVYEKIKAGIISLKYPPGSVLKERELSESLGVSRTPVREAIQRLSQESWLVPGEGKRMQVRP | ≥ 0.43 |
| HMEKTLAERVNDILAEIKMTKQELAMQLNISRSAVSQYLNGKYSSNPEAIEARLRDFVSSYDRG | -0.243 |
| HMEKYIVEAEEQGKRLDMYISSKDEELTRTSAQRLIEQGDILVNNKKVKVAYKVSEGDIIAVEKQ | 0.00594 |
| HMELDLPLEELGLSTRVLHSLKEEGIESVRALLALNLKDLKNIPGIGERSLEEIKEALEKKGFTLK | -0.423 |
| HMELEENTERVLNILIENDIISENDIAEKLEVKINGARKALYKLKEVGFVEYTKERDEEKKWWYIYFWKLN | -0.36 |
| HMELEKIRPDLDGLEIMAILGISPSPIVGRAYQYLLDLRMDRGPLGPDAAKAELLNWWSLNQPK | -1.62 |
| HMELGRQDSAQLGRWAAGILAKNGKKITGRTMEFFLSRTGDDMENISSELEKLISYTLGREVITEEDIEAV | -0.757 |
| HMELGWYVRLRRRELGLSVTALAEKAGMSQSYLSQIETGDRGNPSPESLRSLAEALEVSPRELESLV | 0.286 |
| HMELMKPPGYWQSLENAIYESKKVIKEHGFDTLPSSNKLRELDYHGLSRAISVHHSGFPNFREIMNQELGI | -0.0528 |
| HMELNDEELIKGIQELLTKIGYDPGEINGVLGIKTSSAISAFQQSRNKAITGEADLDLLVQLQIELRKITT | -1.32 |
| HMELNGVSETAKSVYSIILNNSSTVDDIVIKTKLPAAKVMQALTELELNDAVERKSGGVYALP | -0.0324 |
| HMELPADLATVLSVDDIRAIALAEVPGSTITGVELEREEGVLVYKVKFNDGSYKLYDANTGELV | -0.238 |
| HMELPPLEPIDRILVVQQPINIREQPGVLAKKIGRVSSGETLTILAKVSGQDWYFVETDNGGRGYVFKRV | -0.222 |
| HMELQYSQEIEEAQKILENLGLYRGEIDGINGINTKSAIREFQRKSGLVVDGILGPNTTNALSKGSDAYIT | 0.0515 |
| HMELVQIIGNNIRDLMTTRSVTITDLANYLNVSRQTLQNYLRGSNIIDSVKLVAVSDFFDVPVESLLQSK | -0.783 |
| HMEMGNKIKELRTKLGITQEELSKTLNVSSQAVSKWENGGLPDLELIPEIAKYFNVTTDYLFDIK | -0.723 |
| HMEMKVIPFNQMTRDQFDQLDRFLGRLAAAQAMGSLRLTKAQQNYFLNQVKQLDLYRKRILN | 0.0144 |
